The assay addresses thrombospondin-1 (human, UniProt P07996 19-1170). As to the kind of experiment: ELISA.

Sequence of thrombospondin-1 (P07996 19-1170): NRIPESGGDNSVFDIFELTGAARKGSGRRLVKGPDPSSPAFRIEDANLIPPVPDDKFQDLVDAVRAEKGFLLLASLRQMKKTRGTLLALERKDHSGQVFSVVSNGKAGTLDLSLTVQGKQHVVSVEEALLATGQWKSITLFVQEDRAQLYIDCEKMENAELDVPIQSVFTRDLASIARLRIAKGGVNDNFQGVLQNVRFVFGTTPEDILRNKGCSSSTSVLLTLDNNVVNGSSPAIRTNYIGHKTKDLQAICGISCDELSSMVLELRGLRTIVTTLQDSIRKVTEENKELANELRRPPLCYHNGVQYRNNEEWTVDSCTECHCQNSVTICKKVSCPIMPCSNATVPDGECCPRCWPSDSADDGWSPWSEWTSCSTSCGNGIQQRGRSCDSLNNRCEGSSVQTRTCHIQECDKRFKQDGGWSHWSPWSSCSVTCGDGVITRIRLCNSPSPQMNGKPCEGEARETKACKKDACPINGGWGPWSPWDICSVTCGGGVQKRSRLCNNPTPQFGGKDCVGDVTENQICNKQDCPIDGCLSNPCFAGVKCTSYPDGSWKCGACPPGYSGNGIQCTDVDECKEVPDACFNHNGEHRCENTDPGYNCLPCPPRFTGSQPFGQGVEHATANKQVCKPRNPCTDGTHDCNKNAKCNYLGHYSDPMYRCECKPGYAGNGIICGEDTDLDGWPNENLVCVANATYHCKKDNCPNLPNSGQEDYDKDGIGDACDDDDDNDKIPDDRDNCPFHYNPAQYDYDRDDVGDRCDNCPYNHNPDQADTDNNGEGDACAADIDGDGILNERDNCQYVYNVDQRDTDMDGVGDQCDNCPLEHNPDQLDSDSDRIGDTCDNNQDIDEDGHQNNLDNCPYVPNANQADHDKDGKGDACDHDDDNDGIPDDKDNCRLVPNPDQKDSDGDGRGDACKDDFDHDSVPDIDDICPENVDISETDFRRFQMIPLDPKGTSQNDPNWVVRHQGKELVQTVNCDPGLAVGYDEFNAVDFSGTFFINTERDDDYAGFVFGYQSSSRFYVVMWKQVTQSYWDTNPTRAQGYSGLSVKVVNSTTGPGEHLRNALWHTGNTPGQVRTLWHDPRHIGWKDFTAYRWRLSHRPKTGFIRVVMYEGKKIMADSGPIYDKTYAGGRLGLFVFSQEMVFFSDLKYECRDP

For the molecule SNIQVKQRGPYTYRVRFLAKENVTQDAEDNTVSFLQPNGA (domain or fragment, human, UniProt P16671 81-120, looked up) [recombinant thioredoxin/extended CD36 CLESH domain fusion protein (non-phosphorylated)], the binding result is on record as “binds”.

(Values after paper PMC3298081 (Arteriosclerosis, Thrombosis, and Vascular Biology, 2012).)
